41 molecules from patent US20090170763A1 (KENJI KANGAWA, published 2009) can be followed below.

Numbered stars: 1 amine (or outer) side, 2 acyl side, 3 side chain; on linkers, the order of the positions; unused ones are H or OH. Square brackets hold non-standard residues; d marks the D form. Ends that are not written are not given here. * marks the point of attachment. Ethylenediamine = C(CN[*:2])N[*:1]; Palmitoyl = CCCCCCCCCCCCCCCC(=O)*; Lauroyl = CCCCCCCCCCCC(=O)*; Decanoyl = CCCCCCCCCC(=O)*; Octanoyl = CCCCCCCC(=O)*; Hexanoyl = CCCCCC(=O)*; NHBn = c1ccc(CN*)cc1; Butyryl = CCCC(=O)*; Ava = NCCCCC(=O)O; Octyl = CCCCCCCC*

First the molecules themselves.
B1: [N-Octanoyl, Ser^3]-Ghrelin (1-9)-amide (peptide)
peptide: Octanoyl-GSSFLSPEH-NH2
SMILES: CCCCCCCC(=O)NCC(=O)N[C@@H](CO)C(=O)N[C@@H](CO)C(=O)N[C@@H](Cc1ccccc1)C(=O)N[C@@H](CC(C)C)C(=O)N[C@@H](CO)C(=O)N1CCC[C@H]1C(=O)N[C@@H](CCC(=O)O)C(=O)N[C@@H](Cc1c[nH]cn1)C(N)=O
B2: [Ser^2(Octanoyl)]-Ghrelin (1-9)-amide (peptide)
peptide: GS(Octanoyl)S(Octanoyl)FLSPEH-NH2
B3: [Ser^2(Octanoyl), Ser^3]-Ghrelin (1-9)-amide (peptide)
peptide: GS(Octanoyl)SFLSPEH-NH2
modifications: N-terminus assumed
SMILES: CCCCCCCC(=O)OC[C@H](NC(=O)CN)C(=O)N[C@@H](CO)C(=O)N[C@@H](Cc1ccccc1)C(=O)N[C@@H](CC(C)C)C(=O)N[C@@H](CO)C(=O)N1CCC[C@H]1C(=O)N[C@@H](CCC(=O)O)C(=O)N[C@@H](Cc1c[nH]cn1)C(N)=O
B4: Ghrelin (1-9)-amide (peptide)
peptide: GSS(Octanoyl)FLSPEH-NH2
modifications: N-terminus assumed
SMILES: CCCCCCCC(=O)OC[C@H](NC(=O)[C@H](CO)NC(=O)CN)C(=O)N[C@@H](Cc1ccccc1)C(=O)N[C@@H](CC(C)C)C(=O)N[C@@H](CO)C(=O)N1CCC[C@H]1C(=O)N[C@@H](CCC(=O)O)C(=O)N[C@@H](Cc1c[nH]cn1)C(N)=O
B5: [Ser^3]-rat Ghrelin (peptide)
peptide: GSSFLSPEHQKAQQRKESKKPPAKLQPR
B6: [Ser^3(Decanoyl)]-rGhrelin (peptide)
peptide: GSS(Decanoyl)FLSPEHQKAQQRKESKKPPAKLQPR
B7: [Ser^3(Lauroyl)]-rGhrelin (peptide)
peptide: GSS(Lauroyl)FLSPEHQKAQQRKESKKPPAKLQPR
B8: [Ser^3(Palmitoyl)]-rGhrelin (peptide)
peptide: GSS(Palmitoyl)FLSPEHQKAQQRKESKKPPAKLQPR
B9: [Ser^3(Acetyl)]-rGhrelin (peptide)
peptide: GSS(Ac)FLSPEHQKAQQRKESKKPPAKLQPR
B10: [Ser^3(Hexanoyl)]-rGhrelin (peptide)
peptide: GSS(Hexanoyl)FLSPEHQKAQQRKESKKPPAKLQPR
B11: [Ser^3(Butyryl)]-rGhrelin (peptide)
peptide: GSS(Butyryl)FLSPEHQKAQQRKESKKPPAKLQPR
B12: Ghrelin (1-10) (peptide)
peptide: GSS(Octanoyl)FLSPEHQ
B13: Ghrelin (1-9) (peptide)
peptide: GSS(Octanoyl)FLSPEH
B14: Ghrelin (1-8) (peptide)
peptide: GSS(Octanoyl)FLSPE
B15: rGhrelin (1-11) (peptide)
peptide: GSS(Octanoyl)FLSPEHQK
B16: Ghrelin (1-4) (peptide)
peptide: GSS(Octanoyl)F
B17: hGhrelin (1-11) (peptide)
peptide: GSS(Octanoyl)FLSPEHQR
B18: hGhrelin (1-15) (peptide)
peptide: GSS(Octanoyl)FLSPEHQRVQQR
B19: rat ghrelin-27 (peptide)
peptide: GSS(Octanoyl)FLSPEHQKAQRKESKKPPAKLQPR
B20: rGhrelin (1-15) (peptide)
peptide: GSS(Octanoyl)FLSPEHQKAQQR
B21: Ghrelin (16-28) (peptide)
peptide: KESKKPPAKLQPR
modifications: not fully specified
B22: [^DSer^3(Octyl)]-Ghrelin (1-7)-amide (peptide)
peptide: GS[dS](Octyl)FLSP-NH2
B23: [Ser^3(Octyl),^DPhe^4]-Ghrelin (1-7)-amide (peptide)
peptide: GSS(Octyl)[dF]LSP-NH2
B24: [^DSer^3(Octyl),^DPhe^4]-Ghrelin (1-7)-amide (peptide)
peptide: GS[dS](Octyl)[dF]LSP-NH2
B25: [Ser^3(Octyl)]-Ghrelin (1-7)-amide (peptide)
peptide: GSS(Octyl)FLSP-NH2
modifications: N-terminus assumed
SMILES: CCCCCCCCOC[C@H](NC(=O)[C@H](CO)NC(=O)CN)C(=O)N[C@@H](Cc1ccccc1)C(=O)N[C@@H](CC(C)C)C(=O)N[C@@H](CO)C(=O)N1CCC[C@H]1C(N)=O
B26: [Val^3]-hGhrelin (peptide)
peptide: GSVFLSPEHQRVQQRKESKKPPAKLQPR
B27: [Trp^3]-hGhrelin (peptide)
peptide: GSWFLSPEHQRVQQRKESKKPPAKLQPR
B28: [Leu^3]-hGhrelin (peptide)
peptide: GSLFLSPEHQRVQQRKESKKPPAKLQPR
B29: [Ile^3]-hGhrelin (peptide)
peptide: GSIFLSPEHQRVQQRKESKKPPAKLQPR
B30: [Lys^3]-hGhrelin (peptide)
peptide: GSKFLSPEHQRVQQRKESKKPPAKLQPR
B31: [Phe^3]-hGhrelin (peptide)
peptide: GSFFLSPEHQRVQQRKESKKPPAKLQPR
B32: [N-Aminopentanoyl,Ser^3(Octyl)]-Ghrelin (3-5)-benzylamide (peptide)
peptide: [Ava]S(Octyl)FL-NHBn
B33: [N-Aminopentanoyl,Ser^3(Octyl)]-Ghrelin (3-5)-ethylamide (peptide)
peptide: [Ava]S(Octyl)FL-NHEt
B34: [N-Aminopentanoyl,Ser^3(Octyl)]-Ghrelin (3-5)-aminoethylamide (peptide)
peptide: [Ava]S(Octyl)FL-Ethylenediamine
B35: [N-Aminopentanoyl,Ser^3(Octyl)]-Ghrelin (3-5)-methylamide (peptide)
peptide: [Ava]S(Octyl)FL-NHMe
B36: [N-Aminopentanoyl,Ser^3(Octyl)]-Ghrelin (3-5)-amide (peptide)
peptide: [Ava]S(Octyl)FL-NH2
modifications: N-terminus assumed
SMILES: CCCCCCCCOC[C@H](NC(=O)CCCCN)C(=O)N[C@@H](Cc1ccccc1)C(=O)N[C@@H](CC(C)C)C(N)=O

Sequence of rat GHS-R (GHS receptor) expressed on CHO-GHSR62 cells (rat) (O08725 whole entry): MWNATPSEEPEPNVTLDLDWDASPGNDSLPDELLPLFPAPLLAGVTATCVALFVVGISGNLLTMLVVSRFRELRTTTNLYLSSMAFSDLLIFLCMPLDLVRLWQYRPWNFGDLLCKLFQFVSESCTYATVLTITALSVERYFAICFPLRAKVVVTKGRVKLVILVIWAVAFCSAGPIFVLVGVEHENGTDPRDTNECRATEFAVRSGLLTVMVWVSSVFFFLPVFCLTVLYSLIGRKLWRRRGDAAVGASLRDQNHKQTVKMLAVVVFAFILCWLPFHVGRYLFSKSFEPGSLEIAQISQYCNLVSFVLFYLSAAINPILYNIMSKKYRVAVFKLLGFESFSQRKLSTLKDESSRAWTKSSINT

The target in the first experiment is T1, rat GHS-R (GHS receptor) expressed on CHO-GHSR62 cells (rat, UniProt O08725 1-364). The experiment can be described thus: cell-based or functional assay.
T1 sequence (O08725 whole entry): as above
Turning to B1, the “Ca-releasing activity EC50” value was > 10000 nM. On the same count and under the same terms, the result for B2 reads 1400 nM; that for B3, 1100 nM; that for B4, 5.4 nM.

The target in a further experiment is T1, rat GHS-R (GHS receptor) expressed on …. The experiment in a line: cell-based or functional assay. The source holds these as a separate data set.
Regarding B5, the “Ca-releasing activity EC50” value was 3500 nM.

As to B6, the “Ca-releasing activity EC50” value came to 1.7 nM. The same measure, in the same setting: the result for B7 reads 2.4 nM; that for B8, 6.5 nM; that for B9, 780 nM. On the same count and under the same terms, the value for B10 was 16 nM; that for B11 was 280 nM.

The target is the same in another experiment. The experiment can be described thus: cell-based or functional assay. This is another data set of the same source.
For the molecule B12, the “Ca-releasing activity EC50” value is 19 nM. The same measure, in the same setting: the value for B13 was 38 nM.

Take B14: the “Ca-releasing activity EC50” value was 100 nM. As to B15, the “Ca-releasing activity EC50” value is 15 nM. The same measure, in the same setting: the value for B16 was 480 nM; that for B17 was 15 nM.

The next experiment shares this target. The experiment in a line: cell-based or functional assay. The source holds these as a separate data set.
As to B18, the “Ca-releasing activity EC50” value was 7 nM. Still for that read-out and setting: the value for B19 was 1.5 nM; that for B20 was 8.6 nM. On the same count and under the same terms, the value for B21 was > 10000 nM.

The next experiment has the same target. The experiment in a line: cell-based or functional assay. This is another data set of the same source.
Consider B22, for which the “Ca-releasing activity EC50” value was > 10000 nM. The same measure, in the same setting: the result for B23 reads 2200 nM; that for B24, > 10000 nM. On the same count and under the same terms, the value for B25 was 5.8 nM.

The target is the same in another experiment. The experiment in a line: cell-based or functional assay. The source holds these as a separate data set.
For the molecule B18, the “Ca-releasing activity (EC50, nM)” value stood at 7 nM.

For B12, the “Ca-releasing activity (EC50, nM)” value was 19 nM. In the case of B13, the “Ca-releasing activity (EC50, nM)” value is 38 nM. On the same count and under the same terms, the value for B19 was 2.8 nM; that for B14 was 100 nM; that for B6 was 2.6 nM. B8: the “Ca-releasing activity (EC50, nM)” value turned out to be 3.1 nM. Still for that read-out and setting: the value for B20 was 8.6 nM; that for B9 was 780 nM. Still for that read-out and setting: the result for B10 reads 16 nM; that for B21, > 10000 nM; that for B15, 15 nM. Still for that read-out and setting: the value for B16 was 480 nM; that for B17 was 15 nM; that for B11 was 280 nM.

The next experiment shares this target. The experiment in a line: cell-based or functional assay. The source holds these as a separate data set.
Turning to B26, the “Activity EC50” value was 1600 nM. Same read-out and setting: the result for B27 reads 31 nM. Regarding B28, the “Activity EC50” value is 4400 nM. On the same count and under the same terms, the result for B29 reads > 10000 nM; that for B30, 120 nM; that for B31, 2000 nM.

A further experiment deals with amino-terminal antibody (anti-[C-Cys]-rat ghrelin [1-11] antigen). The experiment in a line: radioimmunoassay: inhibition of binding of radioisotope-labeled rat ghrelin to the amino-terminal antibody.
human ghrelin (peptide) came in with a cross-reactivity of 100%. On the same count and under the same terms, the result for B6 reads 20%; that for B10, 0.3%.

Another experiment has as its target rat GHS-R (GHS receptor) expressed on CHO-GHSR62 cells (rat) (UniProt O08725). The experiment can be described thus: cell-based or functional assay.
In turn, “[Aib^1,His^2,^DNal^3,^DPhe^4,Lys^5]-Ghrelin (1-5)-amide (peptide)” registered an Activity EC50 of 2.5 nM and an EC50 value of 2.5 nM. Molecule [D-Lys 3]-GHRP-6 (peptide) yielded an inhibition of the Ca-releasing activity of ghrelin of 100 µM.

Turning to “[N-Aminopentanoyl,^DSer^3(Octyl),^DPhe^4,Lys^5]-Ghrelin (3-5)-amide (peptide)”, the Activity EC50 stood at 1600 nM. “[N-Aminopentanoyl,Ser^3(Octyl),Lys^5]-Ghrelin (3-5)-amide (peptide)” came in with an Activity EC50 of 12 nM.

The target in a further experiment is T1, rat GHS-R (GHS receptor) expressed on …. The experiment in a line: cell-based or functional assay. The source holds these as a separate data set.
With B32, the “Activity EC50” value worked out at 98 nM.

Regarding B33, the “Activity EC50” value was 22 nM. Same read-out and setting: the result for B34 reads 3.5 nM; that for B35, 12 nM. With B36, the “Activity EC50” value was 11 nM.
